Test results reported in publication PMC5177622, “Multivalent Histone and DNA Engagement by a PHD/BRD/PWWP Triple Reader Cassette Recruits ZMYND8 to K14ac-Rich Chromatin” (Cell Reports, 2016).

What was measured:
histone H3 K36me (m36) = assay: anti-FLAG immunoprecipitation and western blot, quantified; conditions: HEK293 cells transiently transfected; three biological replicates; anti-H3K36me blot; parent: est. 1.0; read off a plot
histone H3 K36me2 (m36) = assay: as above; conditions: HEK293 cells transiently transfected; three biological replicates; anti-H3K36me2 blot; parent: est. 1.0; read off a plot
histone H3 K36me3 (m36) = assay: as above; conditions: HEK293 cells transiently transfected; three biological replicates; anti-H3K36me3 blot; parent: est. 1.0; read off a plot
histone H3 K9ac (m36) = assay: as above; conditions: HEK293 cells transiently transfected; three biological replicates; anti-H3K9ac blot; parent: est. 1.0; read off a plot
[1] = biological target: ZMYND8 PHD/BRD/PWWP triple reader cassette (Q83-S406), wild type (human); assay: ITC; ITC200; peptides titrated into a solution of ZMYND8; single-site binding model; n = 3

3×FLAG-ZMYND8 full length, wild type (from UniProt Q9ULU4-13) F288A; W291A
ratio to parent (histone H3 K36me (m36)): 0.28
ratio to parent (histone H3 K36me2 (m36)): 0.08
ratio to parent (histone H3 K36me3 (m36)): 0.39

3×FLAG-ZMYND8 full length, wild type (from UniProt Q9ULU4-13) N228F
ratio to parent (histone H3 K9ac (m36)): 0.19

Histone H3.3 40-aa recombinant peptide, K14ac (from UniProt P84243 2-41)
Kd [1]: 6.8 µM
